Test results taken from patent US20250188457A1, “COMPOSITIONS AND METHODS FOR THE TREATMENT OF GLIOBLASTOMA BY INHIBITION OF THE TFPI2-CD51-STAT6 SIGNALING AXIS” (Northwestern University, priority 2023, published 2025).

Key:
[1] = tested on: SIM-A9, HMC3 microglia and PrhMG; test: Flow cytometry for CD206 and ARG1 (microglia immunosuppressive polarization); type: cell-based, human and mouse; details: TFPI2 recombinant protein 20 ng/ml
Experimental: For membrane protein staining, the single-cell suspensions were washed with PBS and then incubated with fixable viability dye (Invitrogen, #5211229035) on ice for 10 min. Following washing with PBS, cells were incubated with the anti-CD16/CD32 cocktail (BioLegend, #103132) in 2% BSA PBS to block Fc receptors for 30 min on ice. Different antibody combinations, including Percp/Cy5.5 anti-mouse CD45 (BioLegend, #103132), AF488 anti-mouse CD3 (BioLegend, #100210), BV421 anti-mouse CX3CR1 (BD Bioscience, #567531), BUV395 anti-mouse CD4 (BD Bioscience, #740208), BV711 anti-mouse CD8 (BioLegend, #100747), PE/Cy7 anti-mouse/human CD11b (BioLegend, #101216), PE anti-mouse CD68 (BD Bioscience, #566386), PE anti-mouse PD1 (BioLegend, #135205), AF647 anti-mouse CD206 (BD Bioscience, #565250), AF647 anti-human CD206 (BioLegend, #321116), PE anti-human CD69 (BioLegend, #310906), PE/Cy7 anti-mouse CD69 (BioLegend, #104512), and BV650 anti-human HLA-DR (BioLegend, #307650) were added to cell suspensions for 30 min on ice. […] Samples were read in BD FACSymphony flow cytometer and analyzed in FlowJo v10.8.1.
Intracellular protein staining was performed separately or followed by cell surface marker staining. […] Then cell suspensions were rewashed in permeabilization buffer and read in BD FACSymphony flow cytometer.

[2] = tested on: PrhMG, HMC3 and SIM-A9 microglia; test: Transwell migration assay of microglia; type: cell-based, human and mouse; details: TFPI2 recombinant protein 20 ng/ml
Experimental: For transwell migration assay, HMC3 microglia, SIM-A9 microglia, and PrhMG were suspended in serum-free culture medium and seeded into transwell 24-well plates with permeable polycarbonate membrane inserts (5.0 μm, Corning, #07-200-149). GSC conditioned media (CM), or basal cell culture medium with TFPI2 recombinant protein (BioVision, #7481-10) were added to the remaining receiver wells. The STAT6 inhibitor AS151749 (Selleck Chemicals, #S8685) was used to study the role of STAT6 in microglia migration. The CD51 inhibitor MK-0429 (MedChemExpress, #HY-15102) was used to study the role of CD51 in TFPI2-induced microglia migration. After 10 hrs, the migrated microglia were fixed and stained with crystal violet (Sigma, #C-3886). The number of transferred cells was counted using ImageJ (NIH, Bethesda, […]).

[3] = tested on: SIM-A9 and HMC3 microglia; test: RT-qPCR for microglia marker expression; type: cell-based, human and mouse; details: TFPI2 recombinant protein 20 ng/ml
Experimental: Cells were pelleted, and RNA was isolated with the RNeasy Mini Kit (Qiagen, #74106). RNA was quantified by NanoDrop spectrophotometers and then reverse-transcribed into cDNA by using the All-In-One 5×RT MasterMix (Applied Biological Materials, #G592) in T00 Thermal Cycler (Bio-Rad). RT-qPCR was performed using SYBR Green PCR Master Mix (Bio-Rad, #1725275) in CFX Connect Real-Time PCR Detection System (Bio-Rad). The expression of each gene was normalized to housekeeping genes.

[4] = tested on: CD51; test: Co-immunoprecipitation of TFPI2 and CD51 in microglia; type: binding, human and mouse; details: SIM-A9 and HMC3 microglia treated with 20 ng/ml TFPI2 recombinant protein for 1 hr; anti-CD51 or anti-TFPI2 antibody
Experimental: Co-IP was performed using Invitrogen™ Dynabeads™ Protein G Immunoprecipitation Kit (Thermo Fisher Scientific, #10007D). Briefly, human or mouse microglia were treated with 20 ng/ml TFPI2 recombinant protein for 1 hr. RIPA lysis buffer was then used to extract protein after washing with PBS. Magnetic beads (1.5 mg) were separated from the solution using a magnetic stand. […] TFPI2 antibody (Abcam, #ab186747), CD51 antibody (Cell Signaling Technology, #4711S), or rabbit IgG (isotype control, Cell Signaling Technology, #2729) was prepared in […] of antibody binding and washing Buffer. Antibody or IgG was incubated with magnetic beads for 10 min at room temperature with rotation. After removing the supernatant, antibody/IgG-conjugated magnetic beads were incubated with cell lysis buffer for 2 hrs at room temperature with rotation to immunoprecipitate TFPI2- or CD51-interacting antigens. The magnetic bead-antibody-antigen complex was washed three times using […] washing buffer and then eluted with the elution buffer. The complex was loaded into 4-12% SurePAGE gels to evaluate target protein expression after Co-IP.

Molecule | TFPI2-induced increase of immunosuppressive microglia (CD206 and ARG1 expression) ([1]; mouse and human microglia, AS1517499 25 nM) | TFPI2-induced transwell migration of human and mouse microglia ([2]; AS1517499 at indicated concentrations) | TFPI2-induced suppression of immunostimulatory microglia markers (MIF, IL23, CXCL11, IL6, TNFA, LFNG, HLA-DR) ([3]; AS1517499 25 nM) | immunosuppressive microglia (CD206 and ARG1 expression) [1] | interaction between CD51 and TFPI2 [4] | migration of microglia (SIM-A9, HMC3, PrhMG) [2] | expression of immunostimulatory microglia markers (RT-qPCR) [3]
NC(=O)c1cnc(NCCc2ccc(O)c(Cl)c2)nc1NCc1ccccc1 [AS1517499] | negated | suppressed | countered | – | – | – | –
TFPI2 recombinant protein (tissue factor pathway inhibitor 2; BioVision, #7481-10) (ligand, UniProt P48307 23-235, looked up, Bought recombinant protein added to microglia at 20 ng/ml; also called recombinant TFPI2; secreted TFPI2) DAAQEPTGNNAEICLLPLDYGPCRALLLRYYYDRYTQSCRQFLYGGCEGNANNFYTWEACDDACWRIEKVPKVCRLQVSVDDQCEGSTEKYFFNLSSMTCEKFFSGGCHRNRIENRFPDEATCMGFCAPKKIPSFCYSPKDEGLCSANVTRYYFNPRYRTCDAFTYTGCGGNDNNFVSREDCKRACAKALKKKKKMPKLRFASRIRKIRKKQF | – | – | – | increased | confirmed | dramatically increased | suppressed
